Source: publication PMC4649906, “Unraveling the molecular architecture of a G protein-coupled receptor/β-arrestin/Erk module complex” (Scientific Reports, 2015)
Blank lines part the entries; values can stand above or below the binder they belong to.

Target: T1, human recombinant β-arrestin 1 (human, UniProt P49407 1-418)
T1 construct: β-arrestin 1, human, recombinant; Used as the prey (25 ng) in the GST pull-downs; source: bought: Gentaur (human recombinant)
Assay: pull-down; GST fusion protein immobilised on Glutathione Sepharose 4B beads; 25 ng human recombinant β-arrestin 1 as prey, with or without 0.5 mM peptide; 20 mM Hepes pH 7.9, 50 mM KCl, 2.5 mM MgCl2, 1 mM DTT, 10% glycerol, protease and phosphatase inhibitors; 1 hour at 4 °C; six washes; blot with anti-β-arrestin, quantified as the ratio of β-arrestin 1 over GST fusion
Conditions: both partners purified

T1 sequence (P49407 whole entry): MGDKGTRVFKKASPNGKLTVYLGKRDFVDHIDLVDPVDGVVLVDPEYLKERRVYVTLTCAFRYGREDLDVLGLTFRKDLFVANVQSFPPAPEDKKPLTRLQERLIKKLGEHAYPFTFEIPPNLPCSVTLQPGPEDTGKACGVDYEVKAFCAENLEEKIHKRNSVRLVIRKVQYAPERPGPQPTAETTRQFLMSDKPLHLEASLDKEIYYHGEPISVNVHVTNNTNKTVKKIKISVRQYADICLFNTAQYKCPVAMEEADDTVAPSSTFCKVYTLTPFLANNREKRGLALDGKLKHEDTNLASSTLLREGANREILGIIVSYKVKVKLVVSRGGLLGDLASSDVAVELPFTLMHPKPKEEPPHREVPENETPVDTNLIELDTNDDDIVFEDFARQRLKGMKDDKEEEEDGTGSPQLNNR

binding result: binds
B1: Raf1 interfering peptide (peptide)
peptide: KQRTVVNVRN
notes: stretch of Raf1 at the predicted interface with β-arrestin 1, within the RBD; Printed as H-KQRTVVNVRN-OH (free ends); Resuspended in H2O and used at 0.5 mM; source: synthetic peptide (Genecust laboratories)

binding result: binds
B2: ERK interfering peptide (peptide)
peptide: ISPFEHQTY
notes: stretch of ERK2 at the predicted interface with β-arrestin 1; Printed as H-ISPFEHQTY-OH (free ends); Resuspended in H2O + 5% DMSO and used at 0.5 mM; source: synthetic peptide (Genecust laboratories)
